Results: the supplement of paper PMC12042874
± gives the uncertainty stated by the source.

experiment: amyloid nucleation score (Sup35N fusion, yeast selection) (log enrichment); library NNK3; higher = more nucleation; inactive = no reads after selection
Method in brief: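 Nucleation score: DiMSum log enrichment of output over input reads, centred on the mode score of non-aggregating sequences. Only sequences with at least 100 input reads were kept. Reads came from Illumina sequencing of plasmid inserts before and after 7 days of growth at 30°C without adenine and uracil, in psi-negative yeast expressing Sup35N fused to peptides of 20 random codons after 24 hours of induction with 100 μM copper sulfate.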

Substance	amyloid nucleation score
ILLFYLSLKRCSLQARGLDS	-0.659 ± 1.8
ILLIWCIFTSAKFQQTSFMT	inactive
ILLWFSTVNWSFANEPGQIL	inactive
ILRFMYAVHDISFFYLIVCF	inactive
ILRLTCLIAKHTRAVNMDLQ	inactive
ILRYVLAHSVLKTCLMQGLA	inactive
ILSITC	inactive
ILSLAGSKWCWEKYRMGS	inactive
ILSLPRRNYSKTVFNRLKAE	inactive
ILSNDEFTCKFCCSCSYRGG	0.956 ± 0.31
ILVFR	inactive
ILVGNFSILWY	inactive
ILVIIKNHFVFFAGR	inactive
ILVLRHA	inactive
ILVTASTAYLDVRVKWIQTF	inactive
ILYLVR	inactive
IMFSILSVMML	1.74 ± 0.11
IMKKESVAHHVNIGIHASLT	-0.101 ± 1.1
IMLKL	inactive
IMNHLLSRVVCFLDKIVHMG	inactive
IMSKVASDALIPVTSSMSTG	inactive
IMSPTFGFQMLWPGPRHRLL	inactive
IMTSFPGEFPLSLHNMCASC	inactive

Substance	amyloid nucleation score
IMYFMLMLGSSRMSFTKLMG	inactive
INAQS	inactive
INDLKGVVLNIWIKYIV	0.602 ± 0.14
INFHMS	inactive
INFVYSHM	1.75 ± 0.12
INGDMFSSFENVCYYEVSSL	-0.325 ± 0.3
INGSGSAIYGRITRGLNGDS	inactive
INLPDASS	inactive
INMRFIQKRMFVYLNYSWYA	inactive
INQGLTWMLDRPSKFAFVAV	inactive
INQYRPAPIQEAPLF	inactive
INRHGCIGVHTLSLMLRPCV	inactive
INYIIVSGSAGIRMTGK	2.52 ± 0.064
IPFTENSVPPFKGLTVSSNV	inactive
IPRVDLLLCLDSIGLGRSLN	inactive
IPSVFKLSVWGYADSTCLRR	inactive
IPTIVPLAQLRVSVTSVWNL	inactive
IPVCAWRWSG	inactive
IPVGIRSRFVLYSCGMTGVK	inactive
IQGVAWVQKAWFSRKAGVQI	inactive
IQGYLANDVPMRNWPG	inactive
IQRVGTKGDVISTFCNRQQL	inactive
IQWMLCAKANLIEYKGVFFI	inactive

Substance	amyloid nucleation score
IREYCFH	inactive
IRGDGCTGARSPTTSRAAGN	inactive
IRITNDNFVVRLVSQTVGLK	inactive
IRNFSLKPISSNLNSL	inactive
IRRDLYQATPRNLVWAYFGW	inactive
IRTARNTEETMVVACMTVGV	inactive
ISFSLH	inactive
ISILLIFPCEAVIFLPF	inactive
ISKWESKSSSGLDFL	inactive
ISLFDNNLRGWMYGVFRSIA	inactive
ISLGRCNNDHWRILVGTWSA	inactive
ISLLYVFMLNR	2.11 ± 0.078
ISLSR	inactive
ISPGRAGQVVSLAGHSYQAL	inactive
ISRGVVIGTFRRLIERSCGT	inactive
ISSLGKKTW	inactive
ISSNVWARDIRNWLNVTGYC	inactive
ISVGVLSVCCGIC	2.57 ± 0.078
ISVNALYNLMHKCNYNAKLR	inactive
ISVSRKLLKCLVKCMNPGCG	inactive
ITCGIKIFF	2.76 ± 0.068
ITCLNLINGGYHP	-0.066 ± 0.3
ITESIVQFLAFWVRDTDYVC	inactive

Substance	amyloid nucleation score
ITFIM	inactive
ITGHSVLCWGNSSSTMCEMG	inactive
ITHFIMCPYYDYQRDGHWIT	inactive
ITIFDRMNH	inactive
ITLRDVGGHGANLWEGMQFM	inactive
ITMTCFCIMGAESISNLPMW	1.33 ± 0.11
ITNVWSVFKIRIGNCGFGAG	1.9 ± 0.1
ITSSVSFSRPYGVRGLLKKG	0.002 ± 0.43
ITYAQSLKLCRTRVIGGLMY	0.445 ± 0.2
IVCCGSGSEEVGKLSGRIKN	inactive
IVDAIILWCSKILIWVGIGQ	inactive
IVEGHLSIIGWYEGNFPHML	0.145 ± 0.42
IVERSGVSGIWYLSGDLAKV	inactive
IVFEMLPWPVG	-0.435 ± 1.9
IVGNLRDKDNYIVGRLEDSD	inactive
IVISEALVFASGYKQVFNSV	inactive
IVKNDGNGHLLYTLCVFRFW	inactive
IVLWVFVLTITLN	inactive
IVMKALNAFWTRTMLMFHHM	inactive
IVQLVIFLSRYDVLELCMHK	0.07 ± 0.47
IVREVGTA	inactive
IVSKMAVYMAGTSALVLPLL	-0.086 ± 0.88
IVTIFSFQYGWGFLCTRLNF	inactive

Substance	amyloid nucleation score
IVTLCSIFDFAFVVTASTMG	1.13 ± 0.16
IVVCFRSRRFCSSRYHS	inactive
IVVLNVNTPWSMFQGVGSIQ	2.58 ± 0.085
IVYLDIDVFFMFLCVASRTE	1.59 ± 0.081
IWGMIFIGKSSYDISDYVCH	inactive
IWLVLESCNVPFL	inactive
IWYRDSFLPSGRYWFLRINW	inactive
IYCYRLALF	inactive
IYGHCCIISAWVWGNESLVL	inactive
IYGLPRYFVGYGFFKSYVRL	inactive
IYGNFS	inactive
IYGNSFPEGIHRTGWESYHR	inactive
IYIGQFSLVVCVIIDIDI	1.75 ± 0.11
IYIVTYICPVSSRLKGLLCQ	inactive
IYMFVHIK	1.68 ± 0.086
IYNVFDDEDMICTSLVVSRS	inactive
IYRLDSSTSCICHCFLILVF	inactive
IYRSIRQAVLCLGLSGS	inactive
IYSDHAL	inactive
IYVGHK	inactive
KAAEDMRGFHCGARKSIRVD	inactive
KADECS	inactive
KAKPVSKCA	inactive

Substance	amyloid nucleation score
KALWCGYE	inactive
KAPDVLVNGRIL	inactive
KAVGRSIVYDFGSALCEMIN	1.4 ± 0.12
KAVQAVVLSLTGWFGVERLY	inactive
KCCTGERYSLIGFLHFCGEM	0.891 ± 0.15
KCLEGLMVVANDWWVKCFTS	0.671 ± 0.24
KCMFMEDCPLPEWSDLEVGL	inactive
KCSFFMFAVEKEAKNWMVTN	inactive
KCTFFDTCVTQTCLFNMFGC	2.34 ± 0.063
KCWPIVCNLWNREWQCSLIR	inactive
KCYLKSGLDNLVYDLD	inactive
KDYLWNILRIT	inactive
KEMGW	inactive
KEYGLFLYLNFFLDWFNFIN	inactive
KFCGEH	inactive
KFCISSKDKIF	inactive
KFMIVVKCSM	0.745 ± 0.2
KFNSRNRS	inactive
KGEDPPHCSTEIPCMSRQLL	inactive
KGITYLNVRFKNRCPMVFGG	inactive
KGLASSYRTTYAVDL	inactive
KGLCL	inactive
KGLSLGCIFKGLEFREQGVE	inactive

Substance	amyloid nucleation score
KGMDMVI	inactive
KGNRFPRVLGIMFAFLFGSE	inactive
KGSTLLSNIARMVVTCKARP	inactive
KICRIYAMGVLLSDTVSTMS	inactive
KIFSSLFRK	0.251 ± 0.18
KILLHRRHVTPCFKCLNRLD	inactive
KILRRNTWNMFPAALCGVSF	0.997 ± 0.21
KIMFLMGSASMDSTGTC	0.863 ± 0.12
KIQSSTNLPFGASL	inactive
KIRIGW	inactive
KISISD	inactive
KISLISTNCLYMVFPYRYSR	2.13 ± 0.06
KITSRGCN	inactive
KIVFPLNLG	inactive
KIYGIPYCTRVGCNLWPGAG	0.294 ± 0.39
KKYVVFNGCSPYM	inactive
KLCDCVMLLFTLDTRIGNVL	0.053 ± 0.7
KLCVESRIIYTFV	inactive
KLDLKCIIRHWV	inactive
KLFGRCNSNSPIVGWIRCGL	inactive
KLGGLSMRTSYIMPGRTFTS	inactive
KLGIGFPWCGRLHIEHSKMR	inactive
KLLCSLNLVIADEFLTKKGD	1.85 ± 0.099
